# Like-named read-outs stand apart in the source and are kept apart here.
# Legend:
# [1] = target: T1, naturally processed and presented SSX-2 protein on SSX-2+/HLA-A2+ target cells (human); experiment: cell-based or functional assay
# [2] = target: T1, naturally processed and presented SSX-2 …; experiment: cell-based or functional assay; remark: listed apart in the source
Binder,"interferon-γ levels (pg/ml), co-culture with 293-A2-SSX2 cells [1]","interferon-γ levels (pg/ml), co-culture with 624 mel cells [1]","interferon-γ levels (pg/ml), co-culture with 938-A2 mel cells [1]","interferon-γ levels (pg/ml), co-culture with 1300 mel cells [1]","interferon-γ levels (pg/ml), co-culture with COS-A2-SSX2 cells [1]","interferon-γ levels (pg/ml), co-culture with K562-A2- Erythroleukemia cells [1]","interferon-γ levels (pg/ml), co-culture with SKOV3 Ovarian cells [1]","interferon-γ levels (pg/ml), co-culture with Skmel 37 mel cells [1]","interferon-γ levels (pg/ml), co-culture with U251 Glioma cells [1]","interferon-γ levels (pg/ml), co-culture with 293-A2-SSX2 cells [2]","interferon-γ levels (pg/ml), co-culture with 624 mel cells [2]","interferon-γ levels (pg/ml), co-culture with 938-A2 mel cells [2]","interferon-γ levels (pg/ml), co-culture with 1300 mel cells [2]","interferon-γ levels (pg/ml), co-culture with COS-A2-SSX2 cells [2]","interferon-γ levels (pg/ml), co-culture with K562-A2- Erythroleukemia cells [2]","interferon-γ levels (pg/ml), co-culture with SKOV3 Ovarian cells [2]","interferon-γ levels (pg/ml), co-culture with Skmel 37 cells [2]","interferon-γ levels (pg/ml), co-culture with U251 Glioma cells [2]"
"SSX-2 TCR (HLA-A2 restricted TCR from a natural T cell clone, TRAV14/DV4*01 and TRBV15*02-CB1; expressed from the vector comprising SEQ ID NO: 27) (TCR) TCR alpha: MSLSSLLKVVTASLWLGPGIAQKITQTQPGMFVQEKEAVTLDCTYDTSDPSYGLFWYKQPSSGEMIFLIYQGSYDQQNATEGRYSLNFQKARKSANLVISASQLGDSAMYFCAMTSGFGNEKLTFGTGTRLTIIPNIQNPDPAVYQLRDSKSSDKSVCLFTDFDSQTNVSQSKDSDVYITDKTVLDMRSMDFKSNSAVAWSNKSDFACANAFNNSIIPEDTFFPSPESSCDVKLVEKSFETDTNLNFQNLSVIGFRILLLKVAGFNLLMTLRLWSS TCR beta: MGPGLLHWMALCLLGTGHGDAMVIQNPRYQVTQFGKPVTLSCSQTLNHNVMYWYQQKSSQAPKLLFHYYDKDFNNEADTPDNFQSRRPNTSFCFLDIRSPGLGDAAMYLCATSRGQGGQPQHFGDGTRLSILEDLNKVFPPEVAVFEPSEAEISHTQKATLVCLATGFFPDHVELSWWVNGKEVHSGVSTDPQPLKEQPALNDSRYCLSSRLRVSATFWQNPRNHFRCQVQFYGLSENDEWTQDRAKPVTQIVSAEAWGRADCGFTSVSYQQGVLSATILYEILLGKATLYAVLVSALVLMAMVKRKDF",29800 pg/mL,27300 pg/mL,37000 pg/mL,2560 pg/mL,52600 pg/mL,12500 pg/mL,2410 pg/mL,6640 pg/mL,16700 pg/mL,52500 pg/mL,60200 pg/mL,46100 pg/mL,3160 pg/mL,85900 pg/mL,12800 pg/mL,11000 pg/mL,8940 pg/mL,22900 pg/mL
codon-optimized SSX-2 TCR (expressed from the vector comprising SEQ ID NO: 29) (TCR) TCR alpha: MSLSSLLKVVTASLWLGPGIAQKITQTQPGMFVQEKEAVTLDCTYDTSDPSYGLFWYKQPSSGEMIFLIYQGSYDQQNATEGRYSLNFQKARKSANLVISASQLGDSAMYFCAMTSGFGNEKLTFGTGTRLTIIPNIQNPDPAVYQLRDSKSSDKSVCLFTDFDSQTNVSQSKDSDVYITDKTVLDMRSMDFKSNSAVAWSNKSDFACANAFNNSIIPEDTFFPSPESSCDVKLVEKSFETDTNLNFQNLSVIGFRILLLKVAGFNLLMTLRLWSS TCR beta: MGPGLLHWMALCLLGTGHGDAMVIQNPRYQVTQFGKPVTLSCSQTLNHNVMYWYQQKSSQAPKLLFHYYDKDFNNEADTPDNFQSRRPNTSFCFLDIRSPGLGDAAMYLCATSRGQGGQPQHFGDGTRLSILEDLNKVFPPEVAVFEPSEAEISHTQKATLVCLATGFFPDHVELSWWVNGKEVHSGVSTDPQPLKEQPALNDSRYCLSSRLRVSATFWQNPRNHFRCQVQFYGLSENDEWTQDRAKPVTQIVSAEAWGRADCGFTSVSYQQGVLSATILYEILLGKATLYAVLVSALVLMAMVKRKDF,37500 pg/mL,37500 pg/mL,46300 pg/mL,2600 pg/mL,64100 pg/mL,21300 pg/mL,2530 pg/mL,8870 pg/mL,19200 pg/mL,49100 pg/mL,47100 pg/mL,51200 pg/mL,3050 pg/mL,138000 pg/mL,13600 pg/mL,22500 pg/mL,11400 pg/mL,21400 pg/mL
codon-optimized human-mouse chimera SSX-2 TCR (codon-optimized SSX-2 TCR including mouse constant region; expressed from the vector comprising SEQ ID NO: 30) (TCR) TCR alpha: MSLSSLLKVVTASLWLGPGIAQKITQTQPGMFVQEKEAVTLDCTYDTSDPSYGLFWYKQPSSGEMIFLIYQGSYDQQNATEGRYSLNFQKARKSANLVISASQLGDSAMYFCAMTSGFGNEKLTFGTGTRLTIIPNDIQNPEPAVYQLKDPRSQDSTLCLFTDFDSQINVPKTMESGTFITDKTVLDMKAMDSKSNGAIAWSNQTSFTCQDIFKETNATYPSSDVPCDATLTEKSFETDMNLNFQNLSVMGLRILLLKVAGFNLLMTLRLWSS TCR beta: MGPGLLHWMALCLLGTGHGDAMVIQNPRYQVTQFGKPVTLSCSQTLNHNVMYWYQQKSSQAPKLLFHYYDKDFNNEADTPDNFQSRRPNTSFCFLDIRSPGLGDAAMYLCATSRGQGGQPQHFGDGTRLSILEDLRNVTPPKVSLFEPSKAEIANKQKATLVCLARGFFPDHVELSWWVNGKEVHSGVSTDPQAYKESNYSYCLSSRLRVSATFWHNPRNHFRCQVQFHGLSEEDKWPEGSPKPVTQNISAEAWGRACGITSSYQQGVLSATILYEILLGKATLYAVLVSTLVVMAMVKRKNS,37300 pg/mL,47000 pg/mL,51100 pg/mL,2720 pg/mL,56900 pg/mL,17400 pg/mL,2220 pg/mL,10400 pg/mL,19000 pg/mL,47300 pg/mL,57700 pg/mL,40000 pg/mL,3460 pg/mL,164000 pg/mL,13600 pg/mL,9860 pg/mL,10600 pg/mL,20000 pg/mL

# Source: patent publication US20160279196A1 (US Dept. of Health and Human Services, published 2016)
